Test results as given in patent US20180244726A1.

Molecular target: large hepatitis B surface protein (hepatitis B virus)
Assay: cell-based or functional assay

neutralizing monoclonal antibody Ma18/7
inhibition of HBV infection of HepG2-hNTCP cells, secreted HBeAg: > 90%
